Data set [1] concerns the target T1, SbABI4 (rABI4) (Sorghum bicolor (inbred line IS9530), UniProt A0A1B6P7N1 1-257). Nature of the data set: EMSA; additional retarded complex; 25 mM Tris-HCl pH 7.4, 30 mM KCl, 3 mM MgCl2, 0.5 mM EDTA, 14 mM 2-mercaptoethanol, 1 mM DTT, 10% glycerol, 0.05% NP-40, 10 ug/ml BSA, 50 ug/ml salmon sperm DNA, 40 ng probe, 30 min, room temperature. The following applies: protein: recombinant; tags: C-terminal His (pET24a); label: 5'-biotin on strand 1; blunt.

The target of data set [2] is T2, SbABI5 (rABI5) (Sorghum bicolor (inbred line IS9530), UniProt C5XSV4 1-346).
T2 sequence: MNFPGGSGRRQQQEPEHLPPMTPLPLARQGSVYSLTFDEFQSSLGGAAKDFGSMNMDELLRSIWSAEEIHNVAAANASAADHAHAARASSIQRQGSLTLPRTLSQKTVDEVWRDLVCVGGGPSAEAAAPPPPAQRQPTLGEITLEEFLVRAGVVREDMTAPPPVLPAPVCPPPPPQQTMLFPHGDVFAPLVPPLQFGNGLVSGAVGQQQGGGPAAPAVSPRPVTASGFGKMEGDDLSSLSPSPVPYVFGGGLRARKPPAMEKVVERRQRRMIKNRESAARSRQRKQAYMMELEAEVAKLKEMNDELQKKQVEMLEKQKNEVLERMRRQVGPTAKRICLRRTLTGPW
Nature of the data set: EMSA; 25 mM Tris-HCl pH 7.4, 30 mM KCl, 3 mM MgCl2, 0.5 mM EDTA, 14 mM 2-mercaptoethanol, 1 mM DTT, 10% glycerol, 0.05% NP-40, 10 ug/ml BSA, 50 ug/ml salmon sperm DNA, 40 ng probe, 30 min, room temperature. The following applies: protein: recombinant; tags: C-terminal His (pET24a); chain copies: 2; label: 5'-biotin on strand 1; blunt. Background: A gel shift assay detects complexes by their altered migration in electrophoresis.

Data set [3] concerns the target T1, SbABI4 (rABI4). Nature of the data set: competition; 200-600 ng vs 40 ng N1; no effect; 25 mM Tris-HCl pH 7.4, 30 mM KCl, 3 mM MgCl2, 0.5 mM EDTA, 14 mM 2-mercaptoethanol, 1 mM DTT, 10% glycerol, 0.05% NP-40, 10 ug/ml BSA, 50 ug/ml salmon sperm DNA, 40 ng probe, 30 min, room temperature. The following applies: protein: recombinant; tags: C-terminal His (pET24a); blunt.

For data set [4], the target named is T2, SbABI5 (rABI5). Described as above. The following applies: protein: recombinant; tags: C-terminal His (pET24a); chain copies: 2; blunt.
Data set [5] has as its target T1, SbABI4 (rABI4). As to the kind of experiment: EMSA; five complexes; 25 mM Tris-HCl pH 7.4, 30 mM KCl, 3 mM MgCl2, 0.5 mM EDTA, 14 mM 2-mercaptoethanol, 1 mM DTT, 10% glycerol, 0.05% NP-40, 10 ug/ml BSA, 50 ug/ml salmon sperm DNA, 40 ng probe, 30 min, room temperature. The following applies: protein: recombinant; tags: C-terminal His (pET24a); label: 5'-biotin on strand 1; blunt.

The target of data set [6] is T2, SbABI5 (rABI5). As to the kind of experiment: EMSA; four complexes; 25 mM Tris-HCl pH 7.4, 30 mM KCl, 3 mM MgCl2, 0.5 mM EDTA, 14 mM 2-mercaptoethanol, 1 mM DTT, 10% glycerol, 0.05% NP-40, 10 ug/ml BSA, 50 ug/ml salmon sperm DNA, 40 ng probe, 30 min, room temperature. The following applies: protein: recombinant; tags: C-terminal His (pET24a); chain copies: 2; label: 5'-biotin on strand 1; blunt.

The values below come from article PMC3871824, “In vitro binding of Sorghum bicolor transcription factors ABI4 and ABI5 to a conserved region of a GA 2-OXIDASE promoter: possible role of this interaction in the expression of seed dormancy”.

T1 sequence (A0A1B6P7N1 entry or part of it): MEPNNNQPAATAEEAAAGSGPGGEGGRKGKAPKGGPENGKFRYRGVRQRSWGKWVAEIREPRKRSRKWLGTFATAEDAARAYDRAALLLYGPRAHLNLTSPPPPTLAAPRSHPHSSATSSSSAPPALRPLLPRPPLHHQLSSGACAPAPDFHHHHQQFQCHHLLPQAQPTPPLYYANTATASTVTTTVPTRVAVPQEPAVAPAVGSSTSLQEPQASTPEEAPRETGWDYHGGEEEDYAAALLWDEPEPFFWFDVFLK

B1: SbGA2ox3 probe a (intact ABRE and CE) (dsDNA)
DNA 1: GGGCGCCGTGGGAAAACTGCTATTGGCCGGCGTGCCATCGCCTCGTATCGTATGCGTCTCCCATGGAGCCATGCATGCAGCGCGGCGGGCCGACCTGCCACCGGTGGATCGCGTCCGGACACGTCGCGCCC
DNA 2: GGGCGCGACGTGTCCGGACGCGATCCACCGGTGGCAGGTCGGCCCGCCGCGCTGCATGCATGGCTCCATGGGAGACGCATACGATACGAGGCGATGGCACGCCGGCCAATAGCAGTTTTCCCACGGCGCCC
Consider B1, for which the binding result with SbABI4 (rABI4) [1] and with SbABI5 (rABI5) [2] was “binds” each time.

B2: SbGAMyb non-specific competitor 183 bp (dsDNA)
DNA 1: TCTGGGAAGAACCAACAACCATCGGTCCGAAGTTCAAGTTCTTCTGCTGGCACACCTTGTGAGACTACTACGGTGGTTAGCCCAGAGTTTGATATGGGCCAGGAATATTGGGAAGAACAGCCTGGTTCTTTCCTCAGTGAATATGCTCATTTTAGTGGAAATTCTTTGACCGAATCCACTCCT
DNA 2: AGGAGTGGATTCGGTCAAAGAATTTCCACTAAAATGAGCATATTCACTGAGGAAAGAACCAGGCTGTTCTTCCCAATATTCCTGGCCCATATCAAACTCTGGGCTAACCACCGTAGTAGTCTCACAAGGTGTGCCAGCAGAAGAACTTGAACTTCGGACCGATGGTTGTTGGTTCTTCCCAGA
As for B2, the binding result with SbABI4 (rABI4) [3] and in the data set with SbABI5 (rABI5) [4] was “no binding” throughout.

B3: AtEm6 promoter probe 186 bp (dsDNA)
DNA 1: AGTTAAAGAACACGCGGCGAAGAAGTACGGCCACTACCACGTTCAAAGTATACGTCAGCTAATAAAGTCAGACACGTGGCATGTCACCAAGAAAGAAGAGCATACGTATGACGTACCGATTGTCCCTGAGTCACCACGTCGAACATCCACGATGCAACACAACCAAAACGCCCTCCGGATTGA
DNA 2: TCAATCCGGAGGGCGTTTTGGTTGTGTTGCATCGTGGATGTTCGACGTGGTGACTCAGGGACAATCGGTACGTCATACGTATGCTCTTCTTTCTTGGTGACATGCCACGTGTCTGACTTTATTAGCTGACGTATACTTTGAACGTGGTAGTGGCCGTACTTCTTCGCCGCGTGTTCTTTAACT
On to B3, for which the binding result in the data set with SbABI4 (rABI4) [5] and with SbABI5 (rABI5) [6] was “binds” in each case.
